The values that follow come from patent US20220089691A1 (NATIONAL DEFENSE MEDICAL CENTER, published 2022).

The target in the experiment is T1, SARS-CoV spike protein as made in Vero E6 cells infected with SARS-CoV (SARS-CoV, UniProt P59594 14-1255).
T1 construct: whole, on cells
As to the kind of experiment: IFA on Vero E6 cells infected with SARS-CoV.

B1: Monoclonal antibody (mAb) 27b-2 (antibody, V domains shown)
VH: EVQLQESGGGLVKLGGSLKLSCAASGFTFSTYYMSWVRQTPEKRLELVAAINSNGGGTYYPDNVKGRFTISRDNAKNTLYLQMSSLKSEDTALYYCTNYFGSTYAMDYWGQGTSVTVSS
VL: DIVLTQSPLSLPVSLGDQASISCRSSQSLVHSNGNTYLHWYLQKPGQSPKLLIYKVSNRFSGVPDRFSGSGLGTDFTLKIIRVEAEDLGVYFCSQNTHVPFTFGSGTKLEIKR
notes: also called clone 27b-2; second antibody
In the case of B1, the binding result is on record as “binds”.

B2: Monoclonal antibody (mAb) 8a-1 (antibody, V domains shown)
VH: EVQLQESGGGLVQPGGSLKLSCAASGFTFSSYTMSWVRQTPEKRLEWVAYISNGGGSISYPDTVKGRFTISRDNAKNTLYLHMSSLKSEDTAMYHCAREGLRPGDRDRYYAMDYWGQGTSVTVSS
VL: DIVITQSPALMAAFPGDRVTITCSVSSSVSSSNLHWYRQKSETSPKPWIYGTSTLASGVPVRFSGSGSGTSYSLTISSMEAEDAATYYCQQWSSYPLTFGAGTKLELKR
notes: also called clone 8a-1; first antibody
For B2, the binding result is “binds”.
